T1: Human IL-17F (human, UniProt Q96PD4 31-163)
T1 sequence (looked up): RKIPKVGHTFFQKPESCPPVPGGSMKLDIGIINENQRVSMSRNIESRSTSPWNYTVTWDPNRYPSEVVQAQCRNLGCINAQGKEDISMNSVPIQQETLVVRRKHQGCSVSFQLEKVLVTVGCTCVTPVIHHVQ


Tests used:
[1] = molecular target: T2, Human IL-13 (human, UniProt P35225 35-146); experiment: SPR, 100 nM IL-13Rα2 injected over IL-13 held by captured UCBXXXX (competitor)
[2] = molecular target: Human IL-17A (human, UniProt Q16552 24-155); experiment: SPR (Biacore T200), antibody captured on anti-human F(ab')2, human IL-17A as analyte, 25 C, 1:1 model
Experimental: (§1) A goat anti-human IgG, F(ab′)₂ fragment specific antibody (Jackson ImmunoResearch) was immobilised on a CM5 Sensor Chip via amine coupling chemistry to a level of approximately 5000 RU. […] At the end of each cycle the surface was regenerated at a flowrate of 10 μl/min using a 60 s injection of 50 mM HCl followed by a 30 s injection of 5 mM NaOH and a final 60 s injection of 50 mM HCl. […] Buffer blank injections were included to subtract instrument noise and drift.
(§2) Kinetic parameters were determined using a 1:1 binding model using Biacore T200 Evaluation software (version 3.0).

[3] = molecular target: T2, Human IL-13; experiment: SPR (Biacore T200), antibody captured on anti-human F(ab')2, human IL-13 as analyte, 25 C, 1:1 model
Experimental: as §1, §2

[4] = molecular target: T1, Human IL-17F; experiment: SPR (Biacore T200), antibody captured on anti-human F(ab')2, human IL-17F as analyte, 25 C, 1:1 model
Experimental: as §1, §2

[5] = molecular target: T2, Human IL-13; experiment: SPR, antibody captured on anti-human F(ab')2, 25 nM IL-13 injected

Molecule	IL-13Rα2 Binding (RU) [1] [RU]	Kd [2] [nM]	koff [2] [s⁻¹]	kon [2] [M⁻¹ s⁻¹]	Kd [3] [nM]	koff [3] [s⁻¹]	kon [3] [M⁻¹ s⁻¹]	Kd [4] [nM]	koff [4] [s⁻¹]	kon [4] [M⁻¹ s⁻¹]	IL-13 Binding (RU) [5] [RU]
BITS7201A (Genentech) (bispecific antibody)	–	0.0844	0.00106	1.27e+07	0.0275	5.69e-05	2.05e+06	0.0744	0.000574	7.71e+06	8.6
DVD2166 (Abbvie) (bispecific antibody) chain 1: EVQLVQSGAEVKKPGASVKVSCKASGYTFTTYGVSWVRQAPGQGLEWMGEIYPGNYNTYYNEKFRGRVTMTTDTSTSTAYMELRSLRSDDTAVYYCARWRTSYFSDYGYFDYWGQGTTVTVSSASTKGPEVQLVQSGAEVKKPGSSVKVSCKASGYTFTDYEIHWVRQAPGQGLEWMGVNDPESGGTFYNQKFDGRVTLTADESTSTAYMELSSLRSEDTAVYYCTRYSKWDSFDGMDYWGQGTTVTVSS chain 2: DVVMTQSPLSLPVTLGQPASISCRSSQSLVHSHGNTYLHWYQQRPGQSPRLLIYTVSNRFSGVPDRFSGSGSGTDFTLKISRVEAEDVGVYYCSQSTHVPYTFGGGTKVEIKRTVAAPDIQMTQSPSSLSASVGDRVTITCRASSGIISYIDWFQQKPGKAPKRLIYATFDLASGVPSRFSGSGSGTDYTLTISSLQPEDFATYYCRQVGSYPETFGQGTKLEIKR	–	0.137	7.68e-05	559000	0.0184	1.5e-05	816000	–	–	–	–

Second part, the molecule after the results:

IL-13Rα2 Binding (RU) [1] [RU]	Kd [2] [nM]	koff [2] [s⁻¹]	kon [2] [M⁻¹ s⁻¹]	Kd [3] [nM]	koff [3] [s⁻¹]	kon [3] [M⁻¹ s⁻¹]	Kd [4] [nM]	koff [4] [s⁻¹]	kon [4] [M⁻¹ s⁻¹]	IL-13 Binding (RU) [5] [RU]	Molecule
0.3	–	–	–	–	–	–	–	–	–	–	IL-13Rα2 (from UniProt Q14627 27-343) (receptor)
–	0.268	0.000128	476000	0.0563	3.66e-05	650000	–	–	–	–	DVD2174 (Abbvie) (bispecific antibody) chain 1: EVQLVQSGAEVKKPGASVKVSCKASGYTFTTYGVSWVRQAPGQGLEWMGEIYPGNYNTYYNEKFRGRVTMTTDTSTSTAYMELRSLRSDDTAVYYCARWRTSYFSDYGYFDYWGQGTTVTVSSASTKGPEVQLVQSGAEVKKPGSSVKVSCKASGGSFGGYGIGWVRQAPGQGLEWMGGITPFFGFADYAQKFQGRVTITADESTTTAYMELSGLTSDDTAVYYCARDPNEFWNGYYSTHDFDSWGQGTTVTVSS chain 2: DVVMTQSPLSLPVTLGQPASISCRSSQSLVHSHGNTYLHWYQQRPGQSPRLLIYTVSNRFSGVPDRFSGSGSGTDFTLKISRVEAEDVGVYYCSQSTHVPYTFGGGTKVEIKRTVAAPSVFIFPPEIVLTQSPDFQSVTPKEKVTITCRASQDIGSELHWYQQKPDQPPKLLIKYASHSTSGVPSRFSGSGSGTDFTLTINGLEAEDAGTYYCHQTDSLPYTFGPGTKVDIKR
